The values that follow come from paper PMC2951365 (PLoS ONE, 2010).

The target in this assay is T1, ubiquitin (Ub) (UniProt P0CG48 1-76).
T1 construct: ubiquitin, the mature 76-residue product of the polyubiquitin precursor; Used 15N-labelled or unlabelled; also called monoUb; 15N-labeled Ub; source: E. coli (pET-3a-Ub), purified (acetic acid denaturation, SP XL column, Superdex-75)
Put plainly: NMR titration; 15N-Ub (~0.2 mM) titrated with increasing amount of GB1-tagged UIM peptides; 1H-15N HSQC; 20 mM phosphate, 100 mM NaCl, pH 6.5, 25°C; apparent KD from I13, K48 and L71 of Ub; for AT3-UIM12 a simplified 1:2 fit with the two UIM motifs binding Ub equally. Conditions: both partners purified.

B1: GB1-fused AT3-UIM3 (residues 335-354) (domain or fragment)
chain: SEEDMLQAAVTMSLETVRND
modifications: GB1 carrier and C-terminal His6 left out. The template's polyQ length is not printed. The printed limits are applied to the 361-aa UIM3-containing form, where they span the whole UIM3 and correspond …
Regarding B1, the Kd is above 3000 µM.
